Data from patent US20170190753A1 (LABORATOIRE FRANCAIS DU FRACTIONNEMENT ET DES …, published 2017).
Each block holds one binder with its values, some of them ahead of it.

Molecular target: C3 convertase complex (UniProt P01024 23-1663; P00751 260-764)
Assay: cell-based or functional assay
Throughout, for C3 convertase activity % of the control: test concentration or dose not given here.

Chain of C3 convertase complex (P01024 23-1663, chain 1 of 2): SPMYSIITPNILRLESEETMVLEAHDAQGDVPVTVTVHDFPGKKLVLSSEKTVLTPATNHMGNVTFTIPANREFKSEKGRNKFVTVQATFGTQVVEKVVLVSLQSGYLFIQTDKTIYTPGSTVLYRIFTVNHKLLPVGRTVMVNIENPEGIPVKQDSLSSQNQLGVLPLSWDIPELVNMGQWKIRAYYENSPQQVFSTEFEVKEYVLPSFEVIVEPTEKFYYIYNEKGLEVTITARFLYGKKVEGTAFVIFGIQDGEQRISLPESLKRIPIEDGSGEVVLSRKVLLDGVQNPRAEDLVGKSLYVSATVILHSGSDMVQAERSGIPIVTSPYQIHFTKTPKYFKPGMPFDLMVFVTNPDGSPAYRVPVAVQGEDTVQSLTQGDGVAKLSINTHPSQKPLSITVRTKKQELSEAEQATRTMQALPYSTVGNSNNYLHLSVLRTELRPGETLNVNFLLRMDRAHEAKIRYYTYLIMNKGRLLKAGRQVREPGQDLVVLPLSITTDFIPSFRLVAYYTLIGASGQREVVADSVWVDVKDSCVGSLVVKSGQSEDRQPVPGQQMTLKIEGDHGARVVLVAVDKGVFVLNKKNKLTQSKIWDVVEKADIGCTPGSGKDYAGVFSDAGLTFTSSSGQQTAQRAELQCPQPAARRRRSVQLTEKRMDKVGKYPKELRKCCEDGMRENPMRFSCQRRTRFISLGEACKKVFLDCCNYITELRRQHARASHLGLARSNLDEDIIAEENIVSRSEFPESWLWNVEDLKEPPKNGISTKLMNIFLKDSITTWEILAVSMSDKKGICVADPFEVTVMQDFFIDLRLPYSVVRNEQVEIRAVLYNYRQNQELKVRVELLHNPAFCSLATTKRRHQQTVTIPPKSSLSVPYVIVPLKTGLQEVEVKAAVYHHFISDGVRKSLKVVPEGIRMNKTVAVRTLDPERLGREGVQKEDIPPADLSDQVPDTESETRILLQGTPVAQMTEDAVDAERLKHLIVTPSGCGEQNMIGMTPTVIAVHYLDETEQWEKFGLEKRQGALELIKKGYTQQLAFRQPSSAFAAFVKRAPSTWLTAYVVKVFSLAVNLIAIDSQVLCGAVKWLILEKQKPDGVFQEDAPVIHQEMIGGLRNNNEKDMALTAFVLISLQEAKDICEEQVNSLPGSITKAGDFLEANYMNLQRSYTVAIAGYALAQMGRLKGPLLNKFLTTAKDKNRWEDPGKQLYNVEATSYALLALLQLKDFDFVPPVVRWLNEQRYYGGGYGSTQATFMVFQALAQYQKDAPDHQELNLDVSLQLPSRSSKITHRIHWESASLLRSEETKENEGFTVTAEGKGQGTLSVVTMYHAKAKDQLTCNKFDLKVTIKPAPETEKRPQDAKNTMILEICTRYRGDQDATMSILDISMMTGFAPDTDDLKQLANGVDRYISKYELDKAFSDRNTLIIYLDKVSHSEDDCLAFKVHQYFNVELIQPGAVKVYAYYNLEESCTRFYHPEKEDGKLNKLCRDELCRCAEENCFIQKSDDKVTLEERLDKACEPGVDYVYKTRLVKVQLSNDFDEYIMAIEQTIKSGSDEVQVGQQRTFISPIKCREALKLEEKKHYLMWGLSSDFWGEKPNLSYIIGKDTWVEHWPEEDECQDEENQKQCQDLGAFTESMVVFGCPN
Chain of C3 convertase complex (P00751 260-764, chain 2 of 2): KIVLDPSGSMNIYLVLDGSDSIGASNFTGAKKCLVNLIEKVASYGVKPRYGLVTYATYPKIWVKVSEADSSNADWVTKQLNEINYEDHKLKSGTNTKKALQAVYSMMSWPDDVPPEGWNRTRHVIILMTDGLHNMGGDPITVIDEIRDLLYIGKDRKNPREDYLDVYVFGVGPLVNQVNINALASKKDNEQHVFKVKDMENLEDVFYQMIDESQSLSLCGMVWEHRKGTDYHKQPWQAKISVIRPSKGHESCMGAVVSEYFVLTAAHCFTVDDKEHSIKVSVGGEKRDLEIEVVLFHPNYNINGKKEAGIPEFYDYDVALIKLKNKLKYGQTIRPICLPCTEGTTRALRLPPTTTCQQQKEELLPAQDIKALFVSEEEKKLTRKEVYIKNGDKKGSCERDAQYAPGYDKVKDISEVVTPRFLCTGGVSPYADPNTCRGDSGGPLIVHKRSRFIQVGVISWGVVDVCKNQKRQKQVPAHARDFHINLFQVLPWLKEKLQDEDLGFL

B1: pCEP4-1NT4-19CT20 (other)
chain: EDCNELPPRRNTEILTGSWSDQTYPEGTQAIYKCRPGYRSLGNVIMVCRKGEWVALNPLRKCQKRPCGHPGDTPFGTFTLTGGNVFEYGVKAVYTCNEGYQLLGEINYRECDTDGWTNDIPICEVVKCLPVTAPENGKIVSSAMEPDREYHFGQAVRFVCNSGYKIEGDEEMHCSDDGFWSKEKPKCVEISCKSPDVINGSPISQKIIYKENERFQYKCNMGYEYSERGDAVCTESGWRPLPSCEEKSGASGCGPPPPIDNGDITSFPLSVYAPASSVEYQCQNLYQLEGNKRITCRNGQWSEPPKCLHPCVISREIMENYNIALRWTAKQKLYSRTGESVEFVCKRGYRLSSRSHTLRTTCWDGKLEYPTCAKRGGSGHHHHHH
- C3 convertase activity % of the control: 73 % of the control
- C3 convertase activity IC50: 0.0916 mg/L

B2: pCEP4-1NT7-8CT20 (other)
chain: EDCNELPPRRNTEILTGSWSDQTYPEGTQAIYKCRPGYRSLGNVIMVCRKGEWVALNPLRKCQKRPCGHPGDTPFGTFTLTGGNVFEYGVKAVYTCNEGYQLLGEINYRECDTDGWTNDIPICEVVKCLPVTAPENGKIVSSAMEPDREYHFGQAVRFVCNSGYKIEGDEEMHCSDDGFWSKEKPKCVEISCKSPDVINGSPISQKIIYKENERFQYKCNMGYEYSERGDAVCTESGWRPLPSCEEKSCDNPYIPNGDYSPLRIKHRTGDEITYQCRNGFYPATRGNTAKCTSTGWIPAPRCTLKPCDYPDIKHGGLYHENMRRPYFPVAVGKYYSYYCDEHFETPSGSYWDHIHCTQDGWSPAVPCLRKCYFPYLENGYNQNYGRKFVQGKSIDVACHPGYALPKAQTTVTCMENGWSPTPRCIRVKTGASGCSKSSIDIENGFISESQYTYALKEKAKYQCKLGYVTADGETSGSITCGKDGWSAQPTCIKSCDIPVFMNARTKNDFTWFKLNDTLDYECHDGYESNTGSTTGSIVCGYNGWSDLPICYERECELPKIDVHLVPDRKKDQYKVGEVLKFSCKPGFTIVGPNSVQCYHFGLSPDLPICKEQVQSCGPPPELLNGNVKEKTKEEYGHSEVVEYYCNPRFLMKGPNKIQCVDGEWTTLPVCIVEESTCGDIPELEHGWAQLSSPPYYYGDSVEFNCSESFTMIGHRSITCIHGVWTQLPQCVAIDKLKKCKSSNLIILEEHLKNKKEFDHNSNIRYRCRGKEGWIHTVCINGRWDPEVNCSMAQIQLCPPPPQIPNSHNMTTTLNYRDGEKVSVLCQENYLIQEGEEITCKDGRWQSIPLCVEKIPCSQPPQIEHGTINSSRSSQESYAHGTKLSYTCEGGFRISEENETTCYMGKWSSPPQCEGLPCKSPPEISHGVVAHMSDSYQYGEEVTYKCFEGFGIDGPAIAKCLGEKWSHPPSCIKTDCLSLPSFENAIPMGEKKDVYKAGEQVTYTCATYYKMDGASNVTCINSRWTGRPTCRDTSCVNPPTVQNAYIVSRQMSKYPSGERVRYQCRSPYEMFGDEEVMCLNGNWTEPPQCKDSTGKCGPPPPIDNGDITSFPLSVYAPASSVEYQCQNLYQLEGNKRITCRNGQWSEPPKCLHPCVISREIMENYNIALRWTAKQKLYSRTGESVEFVCKRGYRLSSRSHTLRTTCWDGKLEYPTCAKRGGSGHHHHHH
- C3 convertase activity % of the control: 72 % of the control
- C3 convertase activity IC50: 0.542 mg/L

B3: pCEP4-1NT7-14CT20 (other)
chain: EDCNELPPRRNTEILTGSWSDQTYPEGTQAIYKCRPGYRSLGNVIMVCRKGEWVALNPLRKCQKRPCGHPGDTPFGTFTLTGGNVFEYGVKAVYTCNEGYQLLGEINYRECDTDGWTNDIPICEVVKCLPVTAPENGKIVSSAMEPDREYHFGQAVRFVCNSGYKIEGDEEMHCSDDGFWSKEKPKCVEISCKSPDVINGSPISQKIIYKENERFQYKCNMGYEYSERGDAVCTESGWRPLPSCEEKSCDNPYIPNGDYSPLRIKHRTGDEITYQCRNGFYPATRGNTAKCTSTGWIPAPRCTLKPCDYPDIKHGGLYHENMRRPYFPVAVGKYYSYYCDEHFETPSGSYWDHIHCTQDGWSPAVPCLRKCYFPYLENGYNQNYGRKFVQGKSIDVACHPGYALPKAQTTVTCMENGWSPTPRCIRVKTGASGCPPPPQIPNSHNMTTTLNYRDGEKVSVLCQENYLIQEGEEITCKDGRWQSIPLCVEKIPCSQPPQIEHGTINSSRSSQESYAHGTKLSYTCEGGFRISEENETTCYMGKWSSPPQCEGLPCKSPPEISHGVVAHMSDSYQYGEEVTYKCFEGFGIDGPAIAKCLGEKWSHPPSCIKTDCLSLPSFENAIPMGEKKDVYKAGEQVTYTCATYYKMDGASNVTCINSRWTGRPTCRDTSCVNPPTVQNAYIVSRQMSKYPSGERVRYQCRSPYEMFGDEEVMCLNGNWTEPPQCKDSTGKCGPPPPIDNGDITSFPLSVYAPASSVEYQCQNLYQLEGNKRITCRNGQWSEPPKCLHPCVISREIMENYNIALRWTAKQKLYSRTGESVEFVCKRGYRLSSRSHTLRTTCWDGKLEYPTCAKRGGSGHHHHHH
- C3 convertase activity % of the control: 104 % of the control
- C3 convertase activity IC50: 0.0645 mg/L

B4: pCEP4-1NT4-16CT20 (other)
chain: EDCNELPPRRNTEILTGSWSDQTYPEGTQAIYKCRPGYRSLGNVIMVCRKGEWVALNPLRKCQKRPCGHPGDTPFGTFTLTGGNVFEYGVKAVYTCNEGYQLLGEINYRECDTDGWTNDIPICEVVKCLPVTAPENGKIVSSAMEPDREYHFGQAVRFVCNSGYKIEGDEEMHCSDDGFWSKEKPKCVEISCKSPDVINGSPISQKIIYKENERFQYKCNMGYEYSERGDAVCTESGWRPLPSCEEKSGASGCKSPPEISHGVVAHMSDSYQYGEEVTYKCFEGFGIDGPAIAKCLGEKWSHPPSCIKTDCLSLPSFENAIPMGEKKDVYKAGEQVTYTCATYYKMDGASNVTCINSRWTGRPTCRDTSCVNPPTVQNAYIVSRQMSKYPSGERVRYQCRSPYEMFGDEEVMCLNGNWTEPPQCKDSTGKCGPPPPIDNGDITSFPLSVYAPASSVEYQCQNLYQLEGNKRITCRNGQWSEPPKCLHPCVISREIMENYNIALRWTAKQKLYSRTGESVEFVCKRGYRLSSRSHTLRTTCWDGKLEYPTCAKRGGSGHHHHHH
- C3 convertase activity % of the control: 239 % of the control
- C3 convertase activity IC50: 0.0281 mg/L

Other lines, results leading:

- C3 convertase activity % of the control: 69 % of the control
- C3 convertase activity IC50: 0.172 mg/L
B5: pCEP4-1NT9-11CT20 (other)
chain: EDCNELPPRRNTEILTGSWSDQTYPEGTQAIYKCRPGYRSLGNVIMVCRKGEWVALNPLRKCQKRPCGHPGDTPFGTFTLTGGNVFEYGVKAVYTCNEGYQLLGEINYRECDTDGWTNDIPICEVVKCLPVTAPENGKIVSSAMEPDREYHFGQAVRFVCNSGYKIEGDEEMHCSDDGFWSKEKPKCVEISCKSPDVINGSPISQKIIYKENERFQYKCNMGYEYSERGDAVCTESGWRPLPSCEEKSCDNPYIPNGDYSPLRIKHRTGDEITYQCRNGFYPATRGNTAKCTSTGWIPAPRCTLKPCDYPDIKHGGLYHENMRRPYFPVAVGKYYSYYCDEHFETPSGSYWDHIHCTQDGWSPAVPCLRKCYFPYLENGYNQNHGRKFVQGKSIDVACHPGYALPKAQTTVTCMENGWSPTPRCIRVKTCSKSSIDIENGFISESQYTYALKEKAKYQCKLGYVTADGETSGSITCGKDGWSAQPTCIKSCDIPVFMNARTKNDFTWFKLNDTLDYECHDGYESNTGSTTGSIVCGYNGWSDLPICYEREGASGCGPPPELLNGNVKEKTKEEYGHSEVVEYYCNPRFLMKGPNKIQCVDGEWTTLPVCIVEESTCGDIPELEHGWAQLSSPPYYYGDSVEFNCSESFTMIGHRSITCIHGVWTQLPQCVAIDKLKKCKSSNLIILEEHLKNKKEFDHNSNIRYRCRGKEGWIHTVCINGRWDPEVNCSMAQIQLCPPPPQIPNSHNMTTTLNYRDGEKVSVLCQENYLIQEGEEITCKDGRWQSIPLCVEKIPCSQPPQIEHGTINSSRSSQESYAHGTKLSYTCEGGFRISEENETTCYMGKWSSPPQCEGLPCKSPPEISHGVVAHMSDSYQYGEEVTYKCFEGFGIDGPAIAKCLGEKWSHPPSCIKTDCLSLPSFENAIPMGEKKDVYKAGEQVTYTCATYYKMDGASNVTCINSRWTGRPTCRDTSCVNPPTVQNAYIVSRQMSKYPSGERVRYQCRSPYEMFGDEEVMCLNGNWTEPPQCKDSTGKCGPPPPIDNGDITSFPLSVYAPASSVEYQCQNLYQLEGNKRITCRNGQWSEPPKCLHPCVISREIMENYNIALRWTAKQKLYSRTGESVEFVCKRGYRLSSRSHTLRTTCWDGKLEYPTCAKRGGSGHHHHHH

- C3 convertase activity % of the control: 77 % of the control
- C3 convertase activity IC50: 0.471 mg/L
B6: pCEP4-1NT8-11CT20 (other)
chain: EDCNELPPRRNTEILTGSWSDQTYPEGTQAIYKCRPGYRSLGNVIMVCRKGEWVALNPLRKCQKRPCGHPGDTPFGTFTLTGGNVFEYGVKAVYTCNEGYQLLGEINYRECDTDGWTNDIPICEVVKCLPVTAPENGKIVSSAMEPDREYHFGQAVRFVCNSGYKIEGDEEMHCSDDGFWSKEKPKCVEISCKSPDVINGSPISQKIIYKENERFQYKCNMGYEYSERGDAVCTESGWRPLPSCEEKSCDNPYIPNGDYSPLRIKHRTGDEITYQCRNGFYPATRGNTAKCTSTGWIPAPRCTLKPCDYPDIKHGGLYHENMRRPYFPVAVGKYYSYYCDEHFETPSGSYWDHIHCTQDGWSPAVPCLRKCYFPYLENGYNQNYGRKFVQGKSIDVACHPGYALPKAQTTVTCMENGWSPTPRCIRVKTCSKSSIDIENGFISESQYTYALKEKAKYQCKLGYVTADGETSGSITCGKDGWSAQPTCIKSGASGCGPPPELLNGNVKEKTKEEYGHSEVVEYYCNPRFLMKGPNKIQCVDGEWTTLPVCIVEESTCGDIPELEHGWAQLSSPPYYYGDSVEFNCSESFTMIGHRSITCIHGVWTQLPQCVAIDKLKKCKSSNLIILEEHLKNKKEFDHNSNIRYRCRGKEGWIHTVCINGRWDPEVNCSMAQIQLCPPPPQIPNSHNMTTTLNYRDGEKVSVLCQENYLIQEGEEITCKDGRWQSIPLCVEKIPCSQPPQIEHGTINSSRSSQESYAHGTKLSYTCEGGFRISEENETTCYMGKWSSPPQCEGLPCKSPPEISHGVVAHMSDSYQYGEEVTYKCFEGFGIDGPAIAKCLGEKWSHPPSCIKTDCLSLPSFENAIPMGEKKDVYKAGEQVTYTCATYYKMDGASNVTCINSRWTGRPTCRDTSCVNPPTVQNAYIVSRQMSKYPSGERVRYQCRSPYEMFGDEEVMCLNGNWTEPPQCKDSTGKCGPPPPIDNGDITSFPLSVYAPASSVEYQCQNLYQLEGNKRITCRNGQWSEPPKCLHPCVISREIMENYNIALRWTAKQKLYSRTGESVEFVCKRGYRLSSRSHTLRTTCWDGKLEYPTCAKRGGSGHHHHHH
